Measurements published in the supplement of paper PMC12042874.
± gives the uncertainty stated by the source.

Assay: amyloid nucleation score (Sup35N fusion, yeast selection) (log enrichment); library NNK1; higher = more nucleation; inactive = no reads after selection
In short: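 On medium lacking adenine and uracil, psi-negative yeast expressing peptides of 20 random codons fused to Sup35N were grown 7 days at 30°C after a 24-hour induction with 100 μM copper sulfate. Illumina sequencing of input and output plasmid inserts gave the reads, and sequences under 100 input reads were excluded. The nucleation score is the DiMSum log enrichment of output over input reads, centred on the mode score of non-aggregating sequences.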

| Substance | amyloid nucleation score |
| --- | --- |
| VASRTLLCSLGRKRVVVCGC | -0.667 ± 0.29 |
| VAWPRGPVKARGIYISGRIC | inactive |
| VCAEWGAVAPGIGKEYQQRM | 2.04 ± 0.32 |
| VCGRGKGDD | -0.107 ± 0.27 |
| VCKITDLAARCHSREFWESR | 0.253 ± 0.25 |
| VCKVRRL | 0.461 ± 0.63 |
| VCLVDSSWGW | 3.86 ± 0.085 |
| VCMRTAGCFSDTYGVHGFKI | 1.21 ± 0.24 |
| VCMTTLCWISSGVGFLHWSS | 3.98 ± 0.068 |
| VCRTPSLRHHTFDVYFWSDV | -0.105 ± 1.4 |
| VCYCLKWEAMSVKLLCMGCA | -0.688 ± 0.6 |
| VDGRDKSFQSFYCKK | 0.236 ± 0.56 |
| VDISVAYRC | -1.59 ± 1.3 |
| VDKNMFI | -0.021 ± 1.2 |
| VDNFIYLVNYLHTRNFISRH | -0.287 ± 0.35 |
| VDSFRGHIESFPSLRTFIVS | inactive |
| VDTLLARIIRLRHQFSNTAV | 0.16 ± 0.29 |
| VDVANGLADVYLLQ | -0.009 ± 0.57 |
| VDVCCDGYRYLW | -0.754 ± 0.39 |
| VDVQGICRHISFNIAGA | -0.035 ± 0.72 |
| VEKRKTFRLGAFGEVRVICS | 0.461 ± 0.99 |
| VELSRASNLCQDNIREHMQV | -0.32 ± 0.31 |
| VEVCRTNWLVEL | 1.09 ± 0.57 |
| VEYVQYFWSSGGVYGSDTGW | 0.024 ± 0.76 |
| VFAVLRLPPKMTARSMGASP | 0.661 ± 0.61 |

| Substance | amyloid nucleation score |
| --- | --- |
| VFCVSRTINGYN | -0.374 ± 0.48 |
| VFGDT | 0.149 ± 0.97 |
| VFLLVPWPVSFGGRIHACEW | 0.286 ± 0.47 |
| VFLYFIVLNANHCFIMPEHF | 3.42 ± 0.089 |
| VFNLMI | 0.381 ± 0.28 |
| VFQVTWGWSCMREVELSSGT | 0.343 ± 0.67 |
| VFSDQQDHQHGWTYETSLSA | 0.619 ± 0.7 |
| VFSMC | inactive |
| VFSNLELTFDRGCFPVRCLR | -0.482 ± 0.35 |
| VFTACVCGRVEDISDCVPAL | -0.071 ± 0.76 |
| VFWGDKMSLLDLSVTNIMSI | 1.49 ± 0.4 |
| VFWSV | -0.096 ± 0.5 |
| VFYDNSARSVCNPNYGWTFS | 0.181 ± 0.48 |
| VGCADEMVPMEFMCWLGIIF | -0.909 ± 2.7 |
| VGCFLIKSGEQ | -0.385 ± 0.36 |
| VGFVATNCRWSCFS | 5.5 ± 0.11 |
| VGHYDNSYGRNGLLTTR | -0.179 ± 0.53 |
| VGIILRLVQYSDEYYSCYAG | -2.62 ± 2.4 |
| VGLIDANTSSTSWCEGMRNS | -0.321 ± 0.47 |
| VGLSVRACNFTRVGLMSFRD | 0.388 ± 0.37 |
| VGNSSGWLTNHLAEKRGQTM | 0.268 ± 1.1 |
| VGNWYPGIG | inactive |
| VGRACRPDWFLFLRRRKGSR | -0.344 ± 0.44 |
| VGSNYVCVI | -0.545 ± 0.5 |
| VGSSVPGCRAGVFGLLDRCI | -0.489 ± 1.7 |

| Substance | amyloid nucleation score |
| --- | --- |
| VGTFTTELKVVGRIDIVWAR | 0.723 ± 0.46 |
| VGVYGRYIV | -0.135 ± 0.28 |
| VGWFSNESWYLAVNDYGPA | 0.335 ± 0.3 |
| VGYLFRSTSFV | inactive |
| VHATLLNHA | 0.898 ± 0.64 |
| VHKAGDFNVTAFVNSNVFVS | inactive |
| VHKDFHANANRVSWQLAL | -0.243 ± 0.73 |
| VHLCLCRCVLCAENGLWPFS | -0.761 ± 1.2 |
| VHRDFGSENYSTLEVCNSLT | 1.16 ± 0.84 |
| VIAILLDGHLKVFTTLGYNR | -1.59 ± 1.5 |
| VIAKRPSMWGSKRNFRLVRV | 0.512 ± 0.88 |
| VIDKDGVANGKVVLASHCVN | -0.766 ± 0.86 |
| VIFYTFMVRTITACCLKLWV | inactive |
| VIHYCYSCFSADQAGLLFTR | 2.22 ± 0.14 |
| VINIFMVSLANTETDPTAHL | 8.324 ± 0.071 |
| VINRSQIRGHRAFSWVGPSL | 0.53 ± 0.38 |
| VIQHIYAKDSNCSHLV | -0.529 ± 0.52 |
| VIRYSIKSCFLYIKTYQGYM | -0.907 ± 0.43 |
| VITSVGWMLVYENQFTNLHL | 6.855 ± 0.048 |
| VKALGHLRPTWLEKGCNHA | 0.289 ± 0.25 |
| VKATLSFSQFLHVVSYWGF | -0.342 ± 0.71 |
| VKFDLMAI | -0.777 ± 1.7 |
| VKGVD | 1.19 ± 0.64 |
| VKNWMYWQGMSVCRVCRGFY | 1.02 ± 0.38 |
| VKSYNGVGTMYLSRIMLYQY | 0.163 ± 1.4 |

| Substance | amyloid nucleation score |
| --- | --- |
| VKTYRPVSRGAKNKVRLAQG | 0.642 ± 0.49 |
| VKVHEDSIRMEENSSDTYFK | -0.218 ± 0.34 |
| VLDFLYILCVTLANDFLKGW | 0.961 ± 0.76 |
| VLEDCNMRGK | 0.789 ± 0.36 |
| VLGISLSERNLKGIV | 0.232 ± 0.32 |
| VLHCCNAESWLGGWPLGVKN | 0.85 ± 0.6 |
| VLIKLCGYTILIRFGRFLCR | -0.203 ± 0.61 |
| VLILELDGS | -1.11 ± 2.7 |
| VLILVDGSKMAPTALSCYSH | 1.34 ± 0.49 |
| VLKPSLGGCLSHSVMLKLSD | inactive |
| VLLFVRLILWTEGRYNCIMG | -0.801 ± 1.2 |
| VLRFGRWSYFVGVLPEKKRQ | -1.18 ± 2.4 |
| VLSFDLVTVVGNKFLVWIKR | 0.276 ± 0.52 |
| VLSFVLDYCNAEV | 0.653 ± 0.45 |
| VLSRLCLYVSVMSRDNKYGS | 2.38 ± 0.46 |
| VLTRMDKFGARQTSVTQEAG | 0.102 ± 0.62 |
| VLYGLGSWLVRNIVLSYSVV | 0.106 ± 0.24 |
| VLYLDLFWRPPSLKGLL | -0.17 ± 0.32 |
| VMAMSMLYSLMRNGKKLHFK | 1.67 ± 0.6 |
| VMDGYVSGCFLWRCCNRNRS | 2.92 ± 0.12 |
| VMGIDSFTYAG | -0.315 ± 0.54 |
| VMHYYTSVYDVNYVRYSPPW | 1.16 ± 0.35 |
| VMPRTES | 0.408 ± 0.9 |
| VMQFGVSGNAGC | 0.778 ± 0.55 |
| VMRNYFRDPDRPRLKWIYLS | 7.095 ± 0.048 |

| Substance | amyloid nucleation score |
| --- | --- |
| VMSSKDKLIWYTFL | 5.199 ± 0.049 |
| VMTRNTCVQVGLEGTSQFAG | 0.435 ± 0.26 |
| VMTVMVFMRYRGRFVYG | -0.041 ± 0.98 |
| VMVIMDS | 2.11 ± 0.21 |
| VMVQANYMSSSSRSAYLSNM | inactive |
| VMWGQPCQIFSGYAYLRHKV | 0.053 ± 0.48 |
| VMYHGVLYLVNKKVRAWVVG | -0.511 ± 0.76 |
| VNAIRSHAVWNGGQGPRFHS | -0.098 ± 0.42 |
| VNAPST | 0.413 ± 1.1 |
| VNFYDRAYRIWCCRNASE | 3.34 ± 0.088 |
| VNIRRRTLFS | 0.023 ± 0.3 |
| VNKLLS | -0.04 ± 0.28 |
| VNMRASSSMLTTVVAFIFPG | 6.521 ± 0.047 |
| VNRFCSVQVDS | 0.074 ± 0.47 |
| VNSCFSQYYKGHPTLMHERL | 0.01 ± 0.39 |
| VNSLVVLF | 1.84 ± 0.23 |
| VNSNGTPCSMGIHMSGSYSP | 0.226 ± 0.48 |
| VNTIQASMYW | 1.22 ± 0.62 |
| VNTVMGTMQLKLCHKLRIVG | 0.19 ± 0.71 |
| VNVCESTPPDVESRGVCDAG | 2.06 ± 0.1 |
| VNVGRKYGAVLGPGVNYGAK | 0.142 ± 0.29 |
| VNWVLIERWVVS | -1.13 ± 0.85 |
| VPCLVRA | 0.506 ± 0.99 |
| VPGRWHSLCASYTLYA | 0.469 ± 0.72 |
| VPMPGNDQWDGKRGYICIRS | 1.31 ± 0.48 |

| Substance | amyloid nucleation score |
| --- | --- |
| VPNASLSWISFISHLFYMSS | 0.034 ± 0.37 |
| VPNFDQSNGQCIGDTVLMWC | 1.74 ± 0.49 |
| VPNYHAISYIVDLTMCSLFQ | 8.383 ± 0.057 |
| VPYVISINSMVWVGHRPVLP | 6.132 ± 0.057 |
| VPYVRMNVR | 2.24 ± 0.14 |
| VQAVIWWRGRDYGRHRSRPW | -0.35 ± 0.35 |
| VQETYGYLYRNNIDRGGHIN | 2.07 ± 0.56 |
| VQNDTTLHVIFILGRAW | 2.44 ± 0.12 |
| VQSSFSFYDVVNSPGHRWTW | 0.14 ± 0.45 |
| VQYLMWSFTVAKLVMQDYHG | 0.835 ± 0.43 |
| VRACSCMDCDTVYRNVLSMG | -1.79 ± 2.4 |
| VRENLNMLEIHRLGGVKKCV | -1.06 ± 0.95 |
| VRFGWVSSTPVVGVSQLCAH | -0.305 ± 1.1 |
| VRFLISHRESVLKSMAGCVV | 0.815 ± 0.93 |
| VRFSLHDRGRQTRTCYSPWA | 0.006 ± 0.36 |
| VRHGRSYSFLRQGDFMWCGS | -0.306 ± 0.57 |
| VRKEKRNCAGLGRTVVWVRG | 0.461 ± 0.35 |
| VRLCIVHHG | 0.527 ± 0.49 |
| VRLIRGGFDGHADNAVCRWQ | 0.279 ± 0.7 |
| VRMNCMDYQFNYLSLLLRTI | -0.401 ± 0.45 |
| VRNNYSTSIRVVRMAIMWPG | 5.83 ± 0.078 |
| VRPNGVYSFRWTYGFPIQRA | 0.321 ± 0.6 |
| VRTPRRCCSY | -0.096 ± 0.28 |
| VRVFGVTEYNRSCSI | -0.847 ± 1.1 |
| VRVKLKGLFGFNWDG | 0.36 ± 1.2 |

| Substance | amyloid nucleation score |
| --- | --- |
| VRVPLRSKMSNPRLMSRQAA | 0.089 ± 0.49 |
| VRYFCTFLWWSTIRQAQYNI | 0.218 ± 0.78 |
| VRYYMALMRWDDNVNSMCMG | inactive |
| VSFNCTNGFRIKHVLWSTDN | 1.09 ± 0.17 |
| VSGESDSYRVGFSEACLRKL | -0.849 ± 0.65 |
| VSGFGSTYLLCVN | 0.589 ± 1.2 |
| VSIRFSCRRIYNFLVEFPLG | -0.102 ± 0.19 |
| VSKDSSIQRGSRQFCYLAYS | 1.08 ± 0.61 |
| VSMATAVF | 1.22 ± 0.64 |
| VSNVRNSCLHLSARLYSTDL | -0.702 ± 0.91 |
| VSPSIRMGNQGSSFSVLNAL | 0.149 ± 0.55 |
| VSQHSERQGAVCNRCFIVWR | 6.101 ± 0.057 |
| VSSGRRIGCVSPGSGEAREW | 0.376 ± 0.61 |
| VSTCTL | inactive |
| VSYKCSVRFLCIGRLRGVLF | -0.197 ± 0.28 |
| VSYYITCRGKVETIALADRM | 0.088 ± 0.93 |
| VTACGYRMRRCRCFCECNGT | 0.72 ± 0.57 |
| VTCRCYSFSLMAGAMTRRSG | 0.188 ± 0.75 |
| VTDCKLMCTVRPVSGSKTPV | 0.139 ± 0.34 |
| VTFLFNFWHVFC | 6.95 ± 0.074 |
